Measurements taken from patent US20250249092A1 (TORAY INDUSTRIES, published 2025).

B1: Conjugate 29 (antibody, V domains shown)
VH: AVTLDESGGGLQMSRGGLSLVCKASGFDFSSYQMNWIRQAPGKGLEFVAAINKFGNSTGHGAAVKGRVTISRDNGQSTVRLQLNNLRAEDTAIYFCTKHAYGYCGSGTWCAAGEIDAWGHGTEVIVSS
VL: QAASTQPSSVSANPGETVEITCSGGGSYSYGWFQQKSPGSAPVTVIYYNNKRPSDIPSRFSGSKSGSTGTLTITGVQADDEAVYYCGSGDSTDTAVFGAGTTLTVLG
notes: mouse chimeric antibody #1 (mouse IgG constant regions) + resiquimod, MC-Val-Cit-PAB linker
B2: Conjugate 33 (antibody, V domains shown)
VH: B1 VH
VL: B1 VL
notes: mouse chimeric antibody #1 (mouse IgG constant regions) + resiquimod derivative, SATA and SMCC linkers
B3: Conjugate 34 (antibody, V domains shown)
VH: EQSLVESGGGLVQPGGSLRLSCAASGFSLSSHSLGWVRQAPGKGLEWIGDIRSGGSAYYANWAKGRFTISRDNSKNTLYLQMNSLRAEDTAVYYCTRTNGPSDLTNRLDLWGQGTLVTVSS
VL: QVLTQSPSSLSASVGDRVTINCQASQSLYNNENLAWFQQKPGKVPKRLIYGASTLASGVSSRFSGSGSGTEFTLTISSLQCEDFAIYYCLGEFSCGSADCFAFGGGTKVEIK
notes: mouse chimeric antibody #2 (mouse IgG constant regions) + resiquimod derivative, SATA and SMCC linkers
B4: Conjugate 30 (antibody, V domains shown)
VH: B3 VH
VL: B3 VL
notes: mouse chimeric antibody #2 (mouse IgG constant regions) + resiquimod, MC-Val-Cit-PAB linker
B5: Conjugate 31 (antibody, V domains shown)
VH: AVTLDESGGGLQTPGGGLSLVCKASGFTFSSFDMGWVRQAPGKGLEFVAQINDAGSRTWYATAVKGRATISRDNGQTTVRLQLNNLRAEDTGTYYCTRGSGYVGAGAIDAWGHGTEVIVS
VL: AALTQPSSVSANPGETVKITCSGGSGYYGWYQQQKSPGSAPVTVIYQNDKRPSDIPSRFSGSGSGSTNTLTITGVQAEDEAVYFCGRYDSTDSGIFGAGTTLTVL
notes: mouse chimeric antibody #3 (mouse IgG constant regions) + resiquimod, MC-Val-Cit-PAB linker
B6: Conjugate 35 (antibody, V domains shown)
VH: B5 VH
VL: B5 VL
notes: mouse chimeric antibody #3 (mouse IgG constant regions) + resiquimod derivative, SATA and SMCC linkers
B7: Conjugate 8 (antibody, human IgG1, V domains shown)
VH: B3 VH
VL: B3 VL
notes: humanized antibody #2 (human IgG1) + resiquimod, MC-Val-Cit-PAB linker
B8: Conjugate 26 (antibody, human IgG1, V domains shown)
VH: B3 VH
VL: B3 VL
notes: humanized antibody #6 (V regions of #2; human IgG1 S239D/I332E) + resiquimod derivative, SATA and SMCC linkers
B9: Conjugate 22 (antibody, human IgG1, V domains shown)
VH: B3 VH
VL: B3 VL
notes: humanized antibody #2 (human IgG1) + resiquimod derivative, SATA and SMCC linkers
B10: Conjugate 12 (antibody, human IgG1, V domains shown)
VH: B3 VH
VL: B3 VL
notes: humanized antibody #6 (V regions of #2; human IgG1 S239D/I332E) + resiquimod, MC-Val-Cit-PAB linker

The binders below were run against T1, CAPRIN-1 on the cell membrane surface of mouse cancer cells (mouse, UniProt Q60865 2-707) (assay: 4T1 cells).
T1 construct: whole, on cells; also called CAPRIN-1 protein
T1 sequence (looked up): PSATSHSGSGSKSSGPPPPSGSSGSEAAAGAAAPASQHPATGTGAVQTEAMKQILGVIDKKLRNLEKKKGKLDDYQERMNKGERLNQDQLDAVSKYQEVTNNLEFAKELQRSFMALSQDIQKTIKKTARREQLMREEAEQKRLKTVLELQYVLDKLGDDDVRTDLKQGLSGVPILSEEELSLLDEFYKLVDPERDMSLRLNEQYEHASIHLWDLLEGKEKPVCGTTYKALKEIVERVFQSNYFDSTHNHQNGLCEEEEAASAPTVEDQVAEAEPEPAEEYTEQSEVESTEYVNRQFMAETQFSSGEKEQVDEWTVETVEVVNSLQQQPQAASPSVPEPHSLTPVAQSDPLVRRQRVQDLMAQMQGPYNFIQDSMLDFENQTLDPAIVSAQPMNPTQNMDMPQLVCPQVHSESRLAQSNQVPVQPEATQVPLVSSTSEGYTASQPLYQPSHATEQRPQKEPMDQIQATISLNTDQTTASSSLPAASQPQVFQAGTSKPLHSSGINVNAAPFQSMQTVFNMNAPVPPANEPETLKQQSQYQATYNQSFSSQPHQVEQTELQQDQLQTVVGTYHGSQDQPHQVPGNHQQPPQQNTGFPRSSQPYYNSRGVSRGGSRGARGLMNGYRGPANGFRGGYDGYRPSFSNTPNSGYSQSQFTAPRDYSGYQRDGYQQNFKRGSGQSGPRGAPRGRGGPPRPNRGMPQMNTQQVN

Binding result, binds:
B1
B2
B3
B4
B5
B6

What follows are binders tested against T2, CAPRIN-1 on the cell membrane surface of human cancer cells (human, UniProt Q14444 2-709) (assay: BT474 cells, as shown in Example 5).
T2 construct: whole, on cells; also called CAPRIN-1 protein
T2 sequence (looked up): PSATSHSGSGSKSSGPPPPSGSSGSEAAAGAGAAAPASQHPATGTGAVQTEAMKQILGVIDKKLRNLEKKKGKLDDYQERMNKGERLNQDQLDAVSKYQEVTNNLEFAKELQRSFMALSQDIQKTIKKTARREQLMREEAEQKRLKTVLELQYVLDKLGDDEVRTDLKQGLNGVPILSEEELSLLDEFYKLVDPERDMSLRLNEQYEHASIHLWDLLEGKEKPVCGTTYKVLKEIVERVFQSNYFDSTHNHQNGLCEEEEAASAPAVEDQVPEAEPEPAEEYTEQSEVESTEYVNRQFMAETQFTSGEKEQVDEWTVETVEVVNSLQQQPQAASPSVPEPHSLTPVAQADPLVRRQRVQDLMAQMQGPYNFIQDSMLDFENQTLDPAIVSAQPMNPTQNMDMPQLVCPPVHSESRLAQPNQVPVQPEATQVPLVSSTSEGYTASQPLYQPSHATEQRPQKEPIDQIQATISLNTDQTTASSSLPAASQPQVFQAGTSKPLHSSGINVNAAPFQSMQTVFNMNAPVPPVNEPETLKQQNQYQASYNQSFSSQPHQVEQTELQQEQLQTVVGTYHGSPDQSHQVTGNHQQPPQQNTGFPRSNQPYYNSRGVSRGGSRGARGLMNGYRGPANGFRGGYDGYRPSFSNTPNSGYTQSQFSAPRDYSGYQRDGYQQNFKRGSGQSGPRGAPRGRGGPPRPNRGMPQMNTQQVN

Binding result, binds:
B7
B8
B9
B10
